In publication PMC11162790:

Test system: ArsR-P (phosphorylated His6-ArsR) (Helicobacter pylori SMI109)
Experiment: EMSA
Conditions: Buffer F: 50 mM Tris-acetate pH 7.5, 100 mM K-glutamate, 20 mM Mg-acetate, 5% glycerol, 0.1 ug poly dI-dC, 25 C, 30 min; EMSA 5-7 nM DNA, footprint 25 nM DNA

PsabA SMI109 (T13, wt) 407 bp
K half: 1350 nM
